From patent US20060259987A1 (UNIVERSITY OF UTAH RESEARCH FOUNDATION, published 2006)
Changes are numbered by the printed parent chain. Numbers in names are those of the source.

T1: human neutrophil elastase (human, UniProt P08246 30-247, limits assumed)
T1 sequence (looked up): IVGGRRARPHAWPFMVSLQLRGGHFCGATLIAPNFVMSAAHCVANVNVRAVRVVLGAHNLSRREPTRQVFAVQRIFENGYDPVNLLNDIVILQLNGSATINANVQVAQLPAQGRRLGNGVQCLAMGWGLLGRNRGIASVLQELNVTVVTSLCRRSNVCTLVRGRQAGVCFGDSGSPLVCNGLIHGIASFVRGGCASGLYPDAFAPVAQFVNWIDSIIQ

T2: human neutrophil cathepsin G (human, UniProt P08311 21-244)
T2 sequence (looked up): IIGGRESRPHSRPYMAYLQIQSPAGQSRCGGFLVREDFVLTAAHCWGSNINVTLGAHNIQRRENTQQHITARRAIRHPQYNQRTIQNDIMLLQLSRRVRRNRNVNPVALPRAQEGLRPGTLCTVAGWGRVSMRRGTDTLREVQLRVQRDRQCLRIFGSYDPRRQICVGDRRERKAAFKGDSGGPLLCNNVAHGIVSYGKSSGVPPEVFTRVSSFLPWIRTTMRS

B1: LEAQ.501 (other)
chain: SPVDICTAKPRDIPMNPMCIYRSPEKKATEDEGSEQKIPEATNRRVWELSKANSRFATTFYQHLADSKNDNDNIFLSPLSISTAFAMTKLGACNDTLQQLMEVFKFDTISEKTSDQIHFFFAKLNCRLYRKANKASKLVSANRLFGDKSLTFNETYQDISELVYGAKLQPLDFKENAEQSRAAINKWVSNKTEGRITDVIPSEAINELTVLVLVNTIYFKGLWKSKFSPENTRKELFYKADGESCSASMMYQEGKFRYRRVAEGTQVLELPFKGDDITMVLILPKPEKSLAKVEKELTPEVLQEWLDELEEMMLVVHMPRFRIEDGFSLKEQLQDMGLVDLFSPEKSKLPGIVAEGRDDLYVSDAFHKAFLEVNEEGSEAAASTALDAQGRSLNPNRVTFKANRPFLVFIREVPLNTIIFMGRVANPCVK
B2: 13C.432 (other)
chain: B1 chain with A385E, D387E, A388I, Q389A
notes: Made in Drosophila S2 cells (DES) on the S137A background; N-terminus printed as SPVDI---
B3: LEAQ.507 (other)
chain: B1 chain with D387R
B4: LEAQ.518 (other)
chain: B1 chain with A385T, D387E
B5: LEAQ.515 (other)
chain: B1 chain with A385L, D387E
B6: LEAQ.517 (other)
chain: B1 chain with A385S, D387E
B7: 13C.511 (other)
chain: B1 chain with D387E, A388I, Q389A
B8: LEAQ.516 (other)
chain: B1 chain with A385F, D387E
B9: LEAQ.509 (other)
chain: B1 chain with D387V
B10: LEAQ.505 (other)
chain: B1 chain with D387Q
B11: 13C.431 (other)
chain: B1 chain with A385E, D387E, Q389A
notes: Made in Drosophila S2 cells (DES) on the S137A background; N-terminus printed as SPVDI---; primer codon CTC gives L
B12: 13C.433 (other)
chain: B1 chain with A385E, D387E, A388L, Q389A
notes: as for B2

Columns and labels:
human thrombin = human thrombin (human, UniProt P00734 328-622); experiment: cell-based or functional assay
human factor Xa = human factor Xa (human, UniProt P00742 41-179; P00742 235-488, limits assumed); experiment: cell-based or functional assay
[1] = molecular target: T1, human neutrophil elastase; experiment: cell-based or functional assay
[2] = molecular target: T2, human neutrophil cathepsin G; experiment: cell-based or functional assay
thrombin [3] = molecular target: T3, thrombin (human, UniProt P00734 328-622); experiment: cell-based or functional assay
factor Xa [4] = molecular target: T4, factor Xa (human, UniProt P00742 41-179; P00742 235-488, limits assumed); experiment: cell-based or functional assay
factor Xa [5] = molecular target: T4, factor Xa; experiment: heparin cofactor assay, HCA expt #2; ATIII titrated on 10 nM fXa + 50 ug/ml UFH, chromogenic readout
Description: (§1) After 3 minutes, the reactions were quenched with polybrene and chromogenic substrate S2238 (thrombin) or S2765 (fXa), and the initial rate of chromophore production (405 nm) recorded to obtain a measurement residual, uninhibited thrombin or factor Xa. IC50s were determined from plots of ATIII concentration vs. percent residual target enzyme activity.

thrombin [6] = molecular target: T3, thrombin; experiment: heparin cofactor assay, HCA expt #2; ATIII titrated on 10 nM thrombin + 50 ug/ml UFH, chromogenic readout
Description: as §1

human factor Xa, sequence (P00742 41-179 limits assumed, chain 1 of 2): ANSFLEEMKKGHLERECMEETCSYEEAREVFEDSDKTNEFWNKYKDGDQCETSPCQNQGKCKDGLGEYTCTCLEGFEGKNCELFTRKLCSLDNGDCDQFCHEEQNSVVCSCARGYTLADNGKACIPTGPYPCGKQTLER
human factor Xa, sequence (P00742 235-488 limits assumed, chain 2 of 2): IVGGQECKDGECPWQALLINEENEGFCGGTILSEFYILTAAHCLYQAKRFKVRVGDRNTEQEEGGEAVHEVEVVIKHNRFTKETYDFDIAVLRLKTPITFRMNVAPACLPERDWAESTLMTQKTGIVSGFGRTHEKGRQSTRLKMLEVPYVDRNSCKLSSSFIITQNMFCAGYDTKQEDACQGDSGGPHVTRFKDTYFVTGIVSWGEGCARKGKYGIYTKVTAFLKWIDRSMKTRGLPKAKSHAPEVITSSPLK
T4 sequence (P00742 41-179 limits assumed, form in doubt, chain 1 of 2): as the sequence (P00742 41-179 limits assumed, chain 1 of 2) above
T4 sequence (P00742 235-488 limits assumed, form in doubt, chain 2 of 2): as the sequence (P00742 235-488 limits assumed, chain 2 of 2) above

Binder	IC50 IIa/UFH (HCA #5) (human thrombin)	IC50 IIa/UFH (HCA #6) (human thrombin)	rsd IIa, no add (CA #51, stg 1 conc 200) (human thrombin)	IC50 fXa/UFH (HCA #5) (human factor Xa)	IC50 fXa/UFH (HCA #6) (human factor Xa)	rsd Xa, no add (CA #51, stg 1 conc 200) (human factor Xa)	rsd IIa, HNE (CA #51, stg 1 conc 200) [1]	rsd Xa, HNE (CA #51, stg 1 conc 200) [1]	rsd IIa, catG (CA #51, stg 1 conc 200) [2]	rsd Xa, catG (CA #51, stg 1 conc 200) [2]	rsd IIa, no add (CA #52, stg 1 conc 200) (human thrombin)	rsd Xa, no add (CA #52, stg 1 conc 200) (human factor Xa)	rsd IIa, HNE (CA #52, stg 1 conc 200) [1]	rsd Xa, HNE (CA #52, stg 1 conc 200) [1]	rsd IIa, catG (CA #52, stg 1 conc 200) [2]	rsd Xa, catG (CA #52, stg 1 conc 200) [2]	other results
B1	150 nM	140 nM	2%	15 nM	19 nM	1%	3%	1%	3%	-2%							
B2																	rsd. IIa catG; CA expt #7; stg1 conc 200 (thrombin [3]): 5 % of activity without ATIII; rsd. IIa catG; CA expt #8; stg1 conc 200 (thrombin [3]): 8 % of activity without ATIII; rsd. IIa hne; CA expt #7; stg1 conc 200 (thrombin [3]): 3 % of activity without ATIII; rsd. IIa hne; CA expt #8; stg1 conc 200 (thrombin [3]): 16 % of activity without ATIII; rsd. IIa no add; CA expt #7; stg1 conc 200 (thrombin [3]): 5 % of activity without ATIII; rsd. IIa no add; CA expt #8; stg1 conc 200 (thrombin [3]): 5 % of activity without ATIII; rsd. Xa catG; CA expt #7; stg1 conc 200 (factor Xa [4]): 3 % of activity without ATIII; rsd. Xa catG; CA expt #8; stg1 conc 200 (factor Xa [4]): 1 % of activity without ATIII; rsd. Xa hne; CA expt #7; stg1 conc 200 (factor Xa [4]): 2 % of activity without ATIII; rsd. Xa hne; CA expt #8; stg1 conc 200 (factor Xa [4]): 1 % of activity without ATIII; rsd. Xa no add; CA expt #7; stg1 conc 200 (factor Xa [4]): 4 % of activity without ATIII; rsd. Xa no add; CA expt #8; stg1 conc 200 (factor Xa [4]): 1 % of activity without ATIII; IC50 (factor Xa [5]): 45 nM; IC50 (thrombin [6]): 460 nM
B3	55 nM		1%	55 nM		-2%	2%	-3%	2%	-2%							
B4		50 nM			27 nM						4%	3%	3%	2%	2%	1%	
B5		110 nM			18 nM						5%	2%	3%	2%	3%	1%	
B6		65 nM			27 nM						4%	2%	3%	2%	2%	1%	
B7	150 nM	130 nM	2%	30 nM	40 nM	-1%	54%	-3%	1%	-2%	5%	2%	84%	92%	5%	1%	
B8		120 nM			25 nM						4%	3%	9%	3%	5%	1%	
B9	16 nM	18 nM	1%	16 nM	20 nM	-1%	1%	-3%	0%	-1%	1%	3%	52%	10%	6%	1%	
B10	18 nM		0%	16 nM		1%	0%	1%	0%	-2%							
B11																	rsd. IIa catG; CA expt #7; stg1 conc 200 (thrombin [3]): 5 % of activity without ATIII; rsd. IIa catG; CA expt #8; stg1 conc 200 (thrombin [3]): 19 % of activity without ATIII; rsd. IIa hne; CA expt #7; stg1 conc 200 (thrombin [3]): 4 % of activity without ATIII; rsd. IIa hne; CA expt #8; stg1 conc 200 (thrombin [3]): 25 % of activity without ATIII; rsd. IIa no add; CA expt #7; stg1 conc 200 (thrombin [3]): 5 % of activity without ATIII; rsd. IIa no add; CA expt #8; stg1 conc 200 (thrombin [3]): 14 % of activity without ATIII; rsd. Xa catG; CA expt #7; stg1 conc 200 (factor Xa [4]): 3 % of activity without ATIII; rsd. Xa catG; CA expt #8; stg1 conc 200 (factor Xa [4]): 1 % of activity without ATIII; rsd. Xa hne; CA expt #7; stg1 conc 200 (factor Xa [4]): 3 % of activity without ATIII; rsd. Xa hne; CA expt #8; stg1 conc 200 (factor Xa [4]): 2 % of activity without ATIII; rsd. Xa no add; CA expt #7; stg1 conc 200 (factor Xa [4]): 3 % of activity without ATIII; rsd. Xa no add; CA expt #8; stg1 conc 200 (factor Xa [4]): 2 % of activity without ATIII; IC50 (factor Xa [5]): 45 nM; IC50 (thrombin [6]): 550 nM
B12																	rsd. IIa catG; CA expt #7; stg1 conc 200 (thrombin [3]): 5 % of activity without ATIII; rsd. IIa catG; CA expt #8; stg1 conc 200 (thrombin [3]): 18 % of activity without ATIII; rsd. IIa hne; CA expt #7; stg1 conc 200 (thrombin [3]): 4 % of activity without ATIII; rsd. IIa hne; CA expt #8; stg1 conc 200 (thrombin [3]): 20 % of activity without ATIII; rsd. IIa no add; CA expt #7; stg1 conc 200 (thrombin [3]): 5 % of activity without ATIII; rsd. IIa no add; CA expt #8; stg1 conc 200 (thrombin [3]): 13 % of activity without ATIII; rsd. Xa catG; CA expt #7; stg1 conc 200 (factor Xa [4]): 2 % of activity without ATIII; rsd. Xa catG; CA expt #8; stg1 conc 200 (factor Xa [4]): 1 % of activity without ATIII; rsd. Xa hne; CA expt #7; stg1 conc 200 (factor Xa [4]): 3 % of activity without ATIII; rsd. Xa hne; CA expt #8; stg1 conc 200 (factor Xa [4]): 1 % of activity without ATIII; rsd. Xa no add; CA expt #7; stg1 conc 200 (factor Xa [4]): 4 % of activity without ATIII; rsd. Xa no add; CA expt #8; stg1 conc 200 (factor Xa [4]): 1 % of activity without ATIII; IC50 (factor Xa [5]): 30 nM; IC50 (thrombin [6]): 600 nM
